Where two headings read alike, the source gives them in different places. Starred links: 1 amine or outer side, 2 acyl side, 3 side chain; linkers in the order of their positions; H or OH if unused. Positions of bridges follow the written chain, without caps; N, C: chain ends. Non-standard residues stand in square brackets, D forms with d. Groups on a side chain read outwards from the residue. No end group written: not given here. *: point of attachment. γGlu = O=C(O)[C@H](CCC(=O)[*:2])N[*:1]; PEG40kDa = 40 kDa polyethylene glycol; Stearoyl = CCCCCCCCCCCCCCCCCC(=O)*; Palmitoyl = CCCCCCCCCCCCCCCC(=O)*; Myristoyl = CCCCCCCCCCCCCC(=O)*; Dab = NCC[C@H](N)C(=O)O; Aib = CC(C)(N)C(=O)O
Assays:
Test in all cases: cell-based or functional assay
glucagon receptor [1] = target: T1, glucagon receptor (UniProt P47871 26-477, limits assumed)
GLP-1 receptor [2] = target: T2, GLP-1 receptor (UniProt P43220 24-463, limits assumed)
glucagon receptor [3] = target: T1, glucagon receptor; remark: listed apart in the source
glucagon receptor [4] = target: T1, glucagon receptor; remark: listed apart in the source
GLP-1 receptor [5] = target: T2, GLP-1 receptor; remark: listed apart in the source
GLP-1 receptor [6] = target: T2, GLP-1 receptor; remark: listed apart in the source
glucagon receptor [7] = target: T1, glucagon receptor; remark: listed apart in the source
GLP-1 receptor [8] = target: T2, GLP-1 receptor; remark: listed apart in the source
glucagon receptor [9] = target: T1, glucagon receptor; remark: listed apart in the source
GLP-1 receptor [10] = target: T2, GLP-1 receptor; remark: listed apart in the source
glucagon receptor [11] = target: T1, glucagon receptor; remark: listed apart in the source
GLP-1 receptor [12] = target: T2, GLP-1 receptor; remark: listed apart in the source

T1 sequence (P47871 26-477 limits assumed): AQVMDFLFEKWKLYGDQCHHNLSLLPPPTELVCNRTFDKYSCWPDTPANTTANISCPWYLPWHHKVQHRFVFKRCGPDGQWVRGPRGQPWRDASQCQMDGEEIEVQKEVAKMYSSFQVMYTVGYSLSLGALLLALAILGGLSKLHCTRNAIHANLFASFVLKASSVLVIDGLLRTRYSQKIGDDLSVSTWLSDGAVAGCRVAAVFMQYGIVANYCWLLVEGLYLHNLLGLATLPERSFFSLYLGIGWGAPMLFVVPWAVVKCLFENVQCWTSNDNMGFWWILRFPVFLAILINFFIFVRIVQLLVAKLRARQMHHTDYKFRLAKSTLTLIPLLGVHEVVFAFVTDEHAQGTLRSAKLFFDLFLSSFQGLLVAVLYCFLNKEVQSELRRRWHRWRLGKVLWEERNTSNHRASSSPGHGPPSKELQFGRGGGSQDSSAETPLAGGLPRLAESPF

H[dS]QGTFTSDK([γGlu-Palmitoyl])SKYLDEQAAKEFIAWLMNT [Chi-2, d-Ser2, Lys10 γE-C16 (SEQ ID NO: 643)] was tested, and the EC50 (glucagon receptor [1]) was 0.011 nM and the EC50 (GLP-1 receptor [2]) was 1.4 pM.

For HS[Dab](Ac)GTFTSDYSKYLD[Aib]RRASDFVSWLLDE [HSDab(Ac)…ibRRASDFVSWLLDE (SEQ ID NO: 605)], the “% activity” value (glucagon receptor [3]) was 54% and the EC50 (glucagon receptor [3]) was 0.048 nM.

With HSQGTFTSDYSKYLDSRRAQDFVQWLVKGGPSSGAPPPS-NH2 [VKGG30 PSSGAPPPS (SEQ ID NO: 524)] the EC50 (glucagon receptor [4]) was 1.16 nM, the “Relative Potency (%)” value (glucagon receptor [4]) was 7% and the EC50 (GLP-1 receptor [5]) was 0.21 nM. For the same binder, the “Relative Potency (%)” value (GLP-1 receptor [5]) was 12%.

B1: Chi-2, AIB2, I7, Lys10 γE-γE-C16 (SEQ ID NO: 650) (peptide)
peptide: H[Aib]QGTFISDK([γGlu-γGlu-Palmitoyl])SKYLDEQAAKEFIAWLMNT-NH2
modifications: N-terminus assumed
SMILES: CCCCCCCCCCCCCCCC(=O)N[C@@H](CCC(=O)N[C@@H](CCC(=O)NCCCC[C@H](NC(=O)[C@H](CC(=O)O)NC(=O)[C@H](CO)NC(=O)[C@@H](NC(=O)[C@H](Cc1ccccc1)NC(=O)[C@@H](NC(=O)CNC(=O)[C@H](CCC(N)=O)NC(=O)C(C)(C)NC(=O)[C@@H](N)Cc1c[nH]cn1)[C@@H](C)O)[C@@H](C)CC)C(=O)N[C@@H](CO)C(=O)N[C@@H](CCCCN)C(=O)N[C@@H](Cc1ccc(O)cc1)C(=O)N[C@@H](CC(C)C)C(=O)N[C@@H](CC(=O)O)C(=O)N[C@@H](CCC(=O)O)C(=O)N[C@@H](CCC(N)=O)C(=O)N[C@@H](C)C(=O)N[C@@H](C)C(=O)N[C@@H](CCCCN)C(=O)N[C@@H](CCC(=O)O)C(=O)N[C@@H](Cc1ccccc1)C(=O)N[C@H](C(=O)N[C@@H](C)C(=O)N[C@@H](Cc1c[nH]c2ccccc12)C(=O)N[C@@H](CC(C)C)C(=O)N[C@@H](CCSC)C(=O)N[C@@H](CC(N)=O)C(=O)N[C@H](C(N)=O)[C@@H](C)O)[C@@H](C)CC)C(=O)O)C(=O)O
B1 was tested, and the EC50 (glucagon receptor [1]) was 0.007 nM and the EC50 (GLP-1 receptor [2]) was 10 pM.

B2: Peptide Chimera 2-AIB2-K30-acylated (peptide)
peptide: HXQGTFTSDYSKYLDEQAAKEFICWLMNTK
modifications: AIB at 2; Lys acylated with C18 (text says position 10, the name and the sequence say K30); 40 kDa PEG on Cys 24; C-terminal amide
B2 showed an EC50 (GLP-1 receptor [6]) of 0.007 nM.

With HS[Dab](Ac)GTFTSDYSKYLD[Aib]RRATDFVTWLLDE [HSDab(Ac)…ibRRATDFVTWLLDE (SEQ ID NO: 606)] the “% activity” value (glucagon receptor [3]) was 46% and the EC50 (glucagon receptor [3]) was 0.057 nM.

B3: HSDab(Ac)…ibRRAADFVAWLLDTGPSSGAPPPS amide (SEQ ID NO: 604) (peptide)
peptide: HS[Dab](Ac)GTFTSDYSKYLD[Aib]RRAADFVAWLLDTGPSSGAPPPS-NH2
modifications: N-terminus assumed
SMILES: CC(=O)NCC[C@H](NC(=O)[C@H](CO)NC(=O)[C@@H](N)Cc1c[nH]cn1)C(=O)NCC(=O)N[C@H](C(=O)N[C@@H](Cc1ccccc1)C(=O)N[C@H](C(=O)N[C@@H](CO)C(=O)N[C@@H](CC(=O)O)C(=O)N[C@@H](Cc1ccc(O)cc1)C(=O)N[C@@H](CO)C(=O)N[C@@H](CCCCN)C(=O)N[C@@H](Cc1ccc(O)cc1)C(=O)N[C@@H](CC(C)C)C(=O)N[C@@H](CC(=O)O)C(=O)NC(C)(C)C(=O)N[C@@H](CCCNC(=N)N)C(=O)N[C@@H](CCCNC(=N)N)C(=O)N[C@@H](C)C(=O)N[C@@H](C)C(=O)N[C@@H](CC(=O)O)C(=O)N[C@@H](Cc1ccccc1)C(=O)N[C@H](C(=O)N[C@@H](C)C(=O)N[C@@H](Cc1c[nH]c2ccccc12)C(=O)N[C@@H](CC(C)C)C(=O)N[C@@H](CC(C)C)C(=O)N[C@@H](CC(=O)O)C(=O)N[C@H](C(=O)NCC(=O)N1CCC[C@H]1C(=O)N[C@@H](CO)C(=O)N[C@@H](CO)C(=O)NCC(=O)N[C@@H](C)C(=O)N1CCC[C@H]1C(=O)N1CCC[C@H]1C(=O)N1CCC[C@H]1C(=O)N[C@@H](CO)C(N)=O)[C@@H](C)O)C(C)C)[C@@H](C)O)[C@@H](C)O
B3 was tested, and the “% activity” value (glucagon receptor [3]) was 113% and the EC50 (glucagon receptor [3]) was 0.023 nM.

Work on H[Aib]QGTFTSDK(Stearoyl)SKYLDEQAAKEFIC(PEG40kDa)WLMNT-NH2 [Peptide Chimera 2-AIB2-K10-acylated] yielded an EC50 (GLP-1 receptor [6]) of 0.465 nM.

Binder HSQGTFTSDYSKYLDEQAAKEFIC(PEG 40 kDa)WLMNT-NH2 [Chimera 2 Cys24 (40K)] has an EC50 (glucagon receptor [7]) of 2.83 nM and an EC50 (GLP-1 receptor [8]) of 0.04 nM.

For HSQGTFTSDYSKYLDEQAAKEFIAWLMNT-NH2 [E16 GLP(17-26)Glu(27-29)-NH2], the “cAMP induction EC50” value (glucagon receptor [9]) was 0.076 nM and the “cAMP induction EC50” value (GLP-1 receptor [10]) was 0.014 nM.

With H[dS]QGTFTSDK([γGlu-γGlu-Palmitoyl])SKYLDEQAAKEFIAWLMNT [Chi-2, d-Ser2, Lys10 γE-γE-C16 (SEQ ID NO: 644)] the EC50 (glucagon receptor [1]) was 0.008 nM and the EC50 (GLP-1 receptor [2]) was 3 pM.

With H[Aib]QGTFTSDYSKYLDEQAAKEFIC([maleimide-PEG 40 kDa])WLMNT [Peptide X-PEG] the “% activity of native glucagon” value (glucagon receptor [11]) was 1.9% and the “EC50 (cAMP, CRE-luciferase)” value (glucagon receptor [11]) was 2.9 nM.

B4: Chi-2, AIB2, Lys10 γE-C16 (SEQ ID NO: 645) (peptide)
peptide: H[Aib]QGTFTSDK([γGlu-Palmitoyl])SKYLDEQAAKEFIAWLMNT-NH2
modifications: N-terminus assumed
SMILES: CCCCCCCCCCCCCCCC(=O)N[C@@H](CCC(=O)NCCCC[C@H](NC(=O)[C@H](CC(=O)O)NC(=O)[C@H](CO)NC(=O)[C@@H](NC(=O)[C@H](Cc1ccccc1)NC(=O)[C@@H](NC(=O)CNC(=O)[C@H](CCC(N)=O)NC(=O)C(C)(C)NC(=O)[C@@H](N)Cc1c[nH]cn1)[C@@H](C)O)[C@@H](C)O)C(=O)N[C@@H](CO)C(=O)N[C@@H](CCCCN)C(=O)N[C@@H](Cc1ccc(O)cc1)C(=O)N[C@@H](CC(C)C)C(=O)N[C@@H](CC(=O)O)C(=O)N[C@@H](CCC(=O)O)C(=O)N[C@@H](CCC(N)=O)C(=O)N[C@@H](C)C(=O)N[C@@H](C)C(=O)N[C@@H](CCCCN)C(=O)N[C@@H](CCC(=O)O)C(=O)N[C@@H](Cc1ccccc1)C(=O)N[C@H](C(=O)N[C@@H](C)C(=O)N[C@@H](Cc1c[nH]c2ccccc12)C(=O)N[C@@H](CC(C)C)C(=O)N[C@@H](CCSC)C(=O)N[C@@H](CC(N)=O)C(=O)N[C@H](C(N)=O)[C@@H](C)O)[C@@H](C)CC)C(=O)O
With B4 the EC50 (glucagon receptor [1]) was 0.025 nM and the EC50 (GLP-1 receptor [2]) was 1.4 pM.

In the case of HSQGTFTSDYSKYLDSRRAQDFVQWLMDGGPSSGAPPPS-NH2 [MDGG30 PSSGAPPPS (SEQ ID NO: 525)], the EC50 (glucagon receptor [4]) is reported as 0.12 nM, the “Relative Potency (%)” value (glucagon receptor [4]) is reported as 72% and the EC50 (GLP-1 receptor [5]) is reported as 0.13 nM. For the same binder, the “Relative Potency (%)” value (GLP-1 receptor [5]) was 19%.

B5: Peptide 81** (SEQ ID NO: 618) (peptide)
peptide: H[Aib]QGTFTSDK([Ala-Ala-Myristoyl])SKYLD[Aib]RRAQDFVCWLMNT-NH2
modifications: N-terminus assumed
SMILES: CCCCCCCCCCCCCC(=O)N[C@@H](C)C(=O)N[C@@H](C)C(=O)NCCCC[C@H](NC(=O)[C@H](CC(=O)O)NC(=O)[C@H](CO)NC(=O)[C@@H](NC(=O)[C@H](Cc1ccccc1)NC(=O)[C@@H](NC(=O)CNC(=O)[C@H](CCC(N)=O)NC(=O)C(C)(C)NC(=O)[C@@H](N)Cc1c[nH]cn1)[C@@H](C)O)[C@@H](C)O)C(=O)N[C@@H](CO)C(=O)N[C@@H](CCCCN)C(=O)N[C@@H](Cc1ccc(O)cc1)C(=O)N[C@@H](CC(C)C)C(=O)N[C@@H](CC(=O)O)C(=O)NC(C)(C)C(=O)N[C@@H](CCCNC(=N)N)C(=O)N[C@@H](CCCNC(=N)N)C(=O)N[C@@H](C)C(=O)N[C@@H](CCC(N)=O)C(=O)N[C@@H](CC(=O)O)C(=O)N[C@@H](Cc1ccccc1)C(=O)N[C@H](C(=O)N[C@@H](CS)C(=O)N[C@@H](Cc1c[nH]c2ccccc12)C(=O)N[C@@H](CC(C)C)C(=O)N[C@@H](CCSC)C(=O)N[C@@H](CC(N)=O)C(=O)N[C@H](C(N)=O)[C@@H](C)O)C(C)C
B5 gave an EC50 (GLP-1 receptor [12]) of 0.018 nM.

With HSQGTFTSDYSKYLDSRRAQDFVQWLMKGGPSSGAPPPS-NH2 [MKGG30 PSSGAPPPS (SEQ ID NO: 523)] the EC50 (glucagon receptor [4]) was 0.61 nM, the “Relative Potency (%)” value (glucagon receptor [4]) was 14% and the EC50 (GLP-1 receptor [5]) was 0.8 nM. The “Relative Potency (%)” value (GLP-1 receptor [5]) was 3%.

H[Aib]EGTFTSDK([γGlu-γGlu-Palmitoyl])SKYLDEQAAKEFIAWLMNT [Chi-2, AIB2, E3, Lys10 γE-γE-C16 (SEQ ID NO: 648)] was tested, and the EC50 (glucagon receptor [1]) was 2.92 nM and the EC50 (GLP-1 receptor [2]) was 4 pM.

In the case of H[Aib]QGTFTSDYSKYLDEQAAKEFICWLMNT (lactam 16-20) [Peptide Y], the “% activity of native glucagon” value (glucagon receptor [11]) is reported as 99.5%.

B6: Chi-2, AIB2, E3, Lys10 C16 no spacer (SEQ ID NO: 647) (peptide)
peptide: H[Aib]EGTFTSDK(Palmitoyl)SKYLDEQAAKEFIAWLMNT-NH2
modifications: N-terminus assumed
SMILES: CCCCCCCCCCCCCCCC(=O)NCCCC[C@H](NC(=O)[C@H](CC(=O)O)NC(=O)[C@H](CO)NC(=O)[C@@H](NC(=O)[C@H](Cc1ccccc1)NC(=O)[C@@H](NC(=O)CNC(=O)[C@H](CCC(=O)O)NC(=O)C(C)(C)NC(=O)[C@@H](N)Cc1c[nH]cn1)[C@@H](C)O)[C@@H](C)O)C(=O)N[C@@H](CO)C(=O)N[C@@H](CCCCN)C(=O)N[C@@H](Cc1ccc(O)cc1)C(=O)N[C@@H](CC(C)C)C(=O)N[C@@H](CC(=O)O)C(=O)N[C@@H](CCC(=O)O)C(=O)N[C@@H](CCC(N)=O)C(=O)N[C@@H](C)C(=O)N[C@@H](C)C(=O)N[C@@H](CCCCN)C(=O)N[C@@H](CCC(=O)O)C(=O)N[C@@H](Cc1ccccc1)C(=O)N[C@H](C(=O)N[C@@H](C)C(=O)N[C@@H](Cc1c[nH]c2ccccc12)C(=O)N[C@@H](CC(C)C)C(=O)N[C@@H](CCSC)C(=O)N[C@@H](CC(N)=O)C(=O)N[C@H](C(N)=O)[C@@H](C)O)[C@@H](C)CC
B6 gave an EC50 (glucagon receptor [1]) of 46.1 nM and an EC50 (GLP-1 receptor [2]) of 5 pM.
